Target: F-actin (polymerized rabbit skeletal muscle actin) (rabbit) (UniProt P68135)
Assay: co-sedimentation

Substance | percent co-sedimented with F-actin [%] | percent co-sedimented with F-actin, αcat ABD added [%]
GST-Cno H+C+FAB-His6 (Cno residues 1560-2051) (domain or fragment) | 32 | 
Cno FAB peptide (residues 1967-2051), full-length form (domain or fragment) | 55 | 76

Source: article PMC12838526
